Source: PMC12368178
“And” between values parts separate entries of the source, which are not always exact repeats. Equal values may be shown once.

Molecular target: 16055 DG4 NFL trimer (HIV-1 (Indian subtype C 16055 strain))
Assay: SEC + native gel or EMSA

With 16055 DG4 NFL trimer the stoichiometry N was 3 and 6.
